From article PMC11005340

Columns and labels:
[1] = molecular target: HIV-1AD8 Env N332Y (HIV-1 (strain AD8))
[2] = molecular target: HIV-1AD8 Env N332L (HIV-1 (strain AD8))
[3] = molecular target: HIV-1AD8 Env N332E (HIV-1 (strain AD8))

Measured: neutralisation of pseudovirus infection of Cf2-Th/CD4+CCR5+ cells, IC50 (one of the three changes with the highest resistance to PGT121)

PGT121 (antibody)
< 1 µg/mL: [1] | [2] | [3]
